Results on two molecules are retold here after PMC3905860, “DHX9 helicase is involved in preventing genomic instability induced by alternatively structured DNA in human cells”.

In this series the target is DHX9 helicase (human, UniProt Q08211 1-1270). Kind of series: EMSA; 5 mM AMP-PNP, 10 mM Mg2+; 100 nM DHX9, 100 nM DNA; EMSA: 20 mM Tris-HCl pH 7.5, 50 mM NaCl, 1 mM DTT, 1 mM EDTA, 10 mM MgCl2, 5% glycerol, 5 mM AMP-PNP, 30 C 30 min; MBN assay: 10 mM Tris-HCl pH 7.5, 5 mM DTT, 100 ug/ml BSA, 5 mM MgCl2, 5 mM ATP or AMP-PNP, 10% glycerol, 35 C. To be noted: protein: recombinant, tags: His, label: 5'-32P. Background: In EMSA bound probe runs differently from free probe, usually more slowly.
DHX9 helicase, sequence (Q08211 whole entry): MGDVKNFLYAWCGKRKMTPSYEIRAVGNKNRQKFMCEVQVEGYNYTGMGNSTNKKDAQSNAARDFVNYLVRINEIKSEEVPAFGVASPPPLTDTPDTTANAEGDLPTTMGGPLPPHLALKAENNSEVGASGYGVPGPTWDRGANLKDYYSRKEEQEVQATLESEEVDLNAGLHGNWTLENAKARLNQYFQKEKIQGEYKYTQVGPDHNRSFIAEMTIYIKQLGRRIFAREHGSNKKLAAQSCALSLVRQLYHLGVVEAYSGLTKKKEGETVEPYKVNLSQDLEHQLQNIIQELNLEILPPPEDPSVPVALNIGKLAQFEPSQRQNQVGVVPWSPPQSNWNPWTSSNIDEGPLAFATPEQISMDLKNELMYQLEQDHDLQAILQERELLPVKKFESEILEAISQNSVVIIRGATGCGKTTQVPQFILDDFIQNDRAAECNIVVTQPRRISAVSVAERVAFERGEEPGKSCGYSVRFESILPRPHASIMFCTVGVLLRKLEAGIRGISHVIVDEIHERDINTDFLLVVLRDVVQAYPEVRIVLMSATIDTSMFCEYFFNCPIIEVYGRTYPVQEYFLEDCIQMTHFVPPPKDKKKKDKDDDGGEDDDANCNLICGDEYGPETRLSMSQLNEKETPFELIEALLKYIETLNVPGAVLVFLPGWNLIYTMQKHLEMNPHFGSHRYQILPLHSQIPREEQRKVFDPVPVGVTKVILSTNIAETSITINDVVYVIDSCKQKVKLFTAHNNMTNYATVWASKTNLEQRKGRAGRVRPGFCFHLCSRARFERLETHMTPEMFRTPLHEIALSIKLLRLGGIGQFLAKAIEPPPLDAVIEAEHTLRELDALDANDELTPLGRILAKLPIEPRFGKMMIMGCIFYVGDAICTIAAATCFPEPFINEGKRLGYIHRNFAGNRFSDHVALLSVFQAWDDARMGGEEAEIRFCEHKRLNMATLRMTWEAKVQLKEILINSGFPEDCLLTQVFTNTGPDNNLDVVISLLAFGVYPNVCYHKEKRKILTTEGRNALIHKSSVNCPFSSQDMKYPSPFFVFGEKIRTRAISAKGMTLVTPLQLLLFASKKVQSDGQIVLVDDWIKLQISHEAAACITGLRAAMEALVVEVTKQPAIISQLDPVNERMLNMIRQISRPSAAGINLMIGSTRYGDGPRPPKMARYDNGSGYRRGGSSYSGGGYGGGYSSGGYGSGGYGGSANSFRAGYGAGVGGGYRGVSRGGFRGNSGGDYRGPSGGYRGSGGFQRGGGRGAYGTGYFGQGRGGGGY

B1: c-MYC-related intramolecular triplex with 3' overhang (H-DNA) (structured_DNA)
DNA: CCCCTCCCTTTTTGGGAGGGGCGCTTATGGGGAGGGCAGTCGAGCG
As to B1, the binding result (intramolecular triplex with 3' overhang, single strand, pre-annealed with 10 mM Mg2+) is “binds”.

B2: duplex DNA control (dsDNA)
DNA 1: CTTGAGCTTGAGCTCAAGCTCAAG
DNA 2: CTTGAGCTTGAGCTCAAGCTCAAG
Regarding B2, the binding result (self-complementary, 2 copies of one strand, blunt, hairpin may also form) is listed as “no binding”.
